Several values for one entry are separate records, joined by “and”; a condition that tells them apart may be missing. Equal values may be shown once.
Columns and labels:
soluble human RGMa = target: T1, soluble human RGMa (human, UniProt Q96B86 48-422, limits assumed); assay: SPR (BIAcore);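 further: Anti-HJV antibodies tested for binding against soluble human RGMa by surface plasmon resonance on a BIAcore instrument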
T1 construct: Soluble antigen in BIAcore; also called huRGMa; repulsive guidance molecule A
T1 sequence (looked up): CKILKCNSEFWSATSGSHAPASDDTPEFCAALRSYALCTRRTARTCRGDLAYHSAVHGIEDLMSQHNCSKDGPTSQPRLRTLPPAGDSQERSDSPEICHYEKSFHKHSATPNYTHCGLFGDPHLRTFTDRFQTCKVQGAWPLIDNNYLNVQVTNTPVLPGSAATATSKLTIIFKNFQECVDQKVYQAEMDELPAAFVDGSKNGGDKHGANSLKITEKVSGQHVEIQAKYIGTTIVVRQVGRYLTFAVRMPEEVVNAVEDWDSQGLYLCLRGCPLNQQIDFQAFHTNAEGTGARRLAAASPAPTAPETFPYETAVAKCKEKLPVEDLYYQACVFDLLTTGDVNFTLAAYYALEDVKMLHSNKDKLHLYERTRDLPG
Procedure: (§1) Binding affinities of the anti-HJV antibodies to soluble human RGMa, Rat RGMa and human RGMc were measured by BIAcore analysis.

soluble rat RGMa [1] = target: T2, soluble rat RGMa (rat, UniProt D4A188 48-421); assay: SPR (BIAcore);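 further: binding kinetics and affinity of anti-HJV antibodies toward soluble rat RGMa, determined by SPR on a BIAcore instrument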
T2 construct: Soluble antigen in BIAcore
T2 sequence: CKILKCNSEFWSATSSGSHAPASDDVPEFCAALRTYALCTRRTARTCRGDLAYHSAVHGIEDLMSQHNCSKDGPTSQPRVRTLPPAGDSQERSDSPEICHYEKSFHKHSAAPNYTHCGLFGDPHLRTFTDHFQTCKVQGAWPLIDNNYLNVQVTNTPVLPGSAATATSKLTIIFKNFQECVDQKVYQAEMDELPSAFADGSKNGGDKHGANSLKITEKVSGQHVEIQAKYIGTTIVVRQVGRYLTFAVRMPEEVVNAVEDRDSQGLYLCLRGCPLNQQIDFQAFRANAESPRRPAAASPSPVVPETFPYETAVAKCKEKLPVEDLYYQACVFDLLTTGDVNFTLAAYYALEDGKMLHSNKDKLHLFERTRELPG
Procedure: as §1

soluble human RGMc [2] = target: T3, soluble human RGMc (human, UniProt Q6ZVN8 36-400); assay: SPR (BIAcore);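 further: Anti-HJV antibodies, binding affinity to soluble human RGMc measured by BIAcore surface plasmon resonance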
T3 construct: also called huRGMc; soluble hRGMc
T3 sequence: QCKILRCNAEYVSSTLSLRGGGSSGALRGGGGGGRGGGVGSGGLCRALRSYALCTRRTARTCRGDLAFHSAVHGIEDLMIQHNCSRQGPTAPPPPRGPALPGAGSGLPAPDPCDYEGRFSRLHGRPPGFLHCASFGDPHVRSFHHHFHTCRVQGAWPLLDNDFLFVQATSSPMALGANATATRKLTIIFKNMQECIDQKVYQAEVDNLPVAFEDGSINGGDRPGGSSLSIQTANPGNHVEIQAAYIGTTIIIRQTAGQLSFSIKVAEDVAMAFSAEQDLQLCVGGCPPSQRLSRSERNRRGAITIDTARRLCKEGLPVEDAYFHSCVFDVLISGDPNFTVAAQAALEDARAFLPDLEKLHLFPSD
Procedure: as §1

[3] = target: T4, membrane-bound human RGMc (human, UniProt Q6ZVN8 36-400); assay: cell-based or functional assay
T4 sequence: T3 sequence

[4] = target: T5, membrane-bound human RGMa (human, UniProt Q96B86 169-424); assay: cell-based or functional assay
T5 sequence (looked up): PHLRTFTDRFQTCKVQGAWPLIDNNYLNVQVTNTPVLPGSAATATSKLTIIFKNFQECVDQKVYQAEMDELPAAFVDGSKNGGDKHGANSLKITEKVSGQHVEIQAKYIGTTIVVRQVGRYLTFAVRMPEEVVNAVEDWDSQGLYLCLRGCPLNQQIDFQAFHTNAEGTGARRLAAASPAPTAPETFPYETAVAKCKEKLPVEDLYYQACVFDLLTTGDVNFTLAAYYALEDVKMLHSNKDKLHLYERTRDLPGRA

[5] = target: T4, membrane-bound human RGMc; assay: cell-based or functional assay; remark: listed apart in the source
FcRn = target: T6, FcRn; assay: SPR (BIAcore) at pH 6.0
T6 construct: also called neonatal Fc receptor

soluble rat RGMa [6] = target: T2, soluble rat RGMa; assay: SPR (BIAcore), RGM antigen in solution
Cyno RGMa = target: T7, Cyno RGMa (cyno, UniProt Q9N0A6 54-433, limits assumed); assay: SPR (BIAcore), RGM antigen in solution
T7 sequence (looked up): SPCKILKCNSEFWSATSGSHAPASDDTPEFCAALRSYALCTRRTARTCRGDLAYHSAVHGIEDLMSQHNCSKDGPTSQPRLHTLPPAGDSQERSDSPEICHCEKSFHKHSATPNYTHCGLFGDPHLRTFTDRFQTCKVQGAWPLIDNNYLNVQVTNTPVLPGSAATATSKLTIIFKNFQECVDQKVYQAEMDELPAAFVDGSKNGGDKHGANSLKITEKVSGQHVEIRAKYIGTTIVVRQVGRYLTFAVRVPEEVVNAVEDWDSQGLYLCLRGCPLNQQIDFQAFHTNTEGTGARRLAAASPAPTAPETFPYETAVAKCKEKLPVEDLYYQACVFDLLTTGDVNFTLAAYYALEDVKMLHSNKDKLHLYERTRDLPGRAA

Rat RGMc = target: T8, Rat RGMc (rat, UniProt Q8N7M5 36-396, limits assumed); assay: SPR (BIAcore), RGM antigen in solution
T8 sequence (looked up): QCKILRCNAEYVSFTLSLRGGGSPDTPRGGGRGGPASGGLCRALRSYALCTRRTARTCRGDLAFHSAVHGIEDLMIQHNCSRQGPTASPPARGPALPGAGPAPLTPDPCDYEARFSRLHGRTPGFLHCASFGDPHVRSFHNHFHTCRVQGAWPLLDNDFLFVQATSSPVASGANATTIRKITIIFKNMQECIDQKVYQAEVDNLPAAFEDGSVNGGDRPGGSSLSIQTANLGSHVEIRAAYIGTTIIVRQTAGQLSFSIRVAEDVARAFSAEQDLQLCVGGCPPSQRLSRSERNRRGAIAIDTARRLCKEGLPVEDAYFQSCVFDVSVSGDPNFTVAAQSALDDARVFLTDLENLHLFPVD

soluble human RGMc [7] = target: T3, soluble human RGMc; assay: SPR (BIAcore), soluble hRGMc; summary table

T6 sequence (P55899 24-297, chain 1 of 2): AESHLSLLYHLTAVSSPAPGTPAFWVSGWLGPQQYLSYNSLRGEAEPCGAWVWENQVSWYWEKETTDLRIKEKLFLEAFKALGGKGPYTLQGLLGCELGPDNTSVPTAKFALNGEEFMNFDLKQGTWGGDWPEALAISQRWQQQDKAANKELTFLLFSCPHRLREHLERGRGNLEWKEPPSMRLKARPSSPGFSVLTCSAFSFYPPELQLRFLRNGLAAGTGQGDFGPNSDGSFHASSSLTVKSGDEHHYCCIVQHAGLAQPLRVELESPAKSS
T6 sequence (P61769 21-119, chain 2 of 2, further chain): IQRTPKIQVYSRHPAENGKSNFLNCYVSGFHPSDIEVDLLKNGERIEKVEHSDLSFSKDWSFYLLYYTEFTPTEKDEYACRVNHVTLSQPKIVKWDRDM

B1: hHA-008 (antibody, human IgG1, kappa, L234A L235A)
heavy: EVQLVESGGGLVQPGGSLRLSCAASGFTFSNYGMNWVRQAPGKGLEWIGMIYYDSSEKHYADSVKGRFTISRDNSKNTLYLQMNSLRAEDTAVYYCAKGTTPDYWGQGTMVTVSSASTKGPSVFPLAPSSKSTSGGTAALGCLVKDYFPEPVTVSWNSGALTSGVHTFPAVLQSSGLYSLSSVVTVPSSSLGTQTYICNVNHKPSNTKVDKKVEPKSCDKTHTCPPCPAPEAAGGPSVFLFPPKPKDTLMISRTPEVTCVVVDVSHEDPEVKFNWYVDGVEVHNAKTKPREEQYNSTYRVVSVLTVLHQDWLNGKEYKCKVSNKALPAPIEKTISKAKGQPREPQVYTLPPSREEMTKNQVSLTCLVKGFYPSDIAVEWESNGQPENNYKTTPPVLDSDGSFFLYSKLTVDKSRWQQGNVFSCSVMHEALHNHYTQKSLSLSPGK
light: DVVLTQSPLSLPVTLGQPASISCRSSQSLEESDGYTFLHWFQQRPGQSPRLLIYEVSTRFSGVPDRFSGSGSGTDFTLKISRVEAEDVGVYYCFQATHDPLTFGQGTKLEIKRTVAAPSVFIFPPSDEQLKSGTASVVCLLNNFYPREAKVQWKVDNALQSGNSQESVTEQDSKDSTYSLSSTLTLSKADYEKHKVYACEVTHQGLSSPVTKSFNRGEC
notes: hIgG1 L234A, L235A, kappa; also called hHA-008 (hIgG1mut(LALA)/k)
**Q.** What does the source list for B1?
**A.** Kd (soluble human RGMa): 0.031 nM; koff (soluble human RGMa): 2.7e-05 s⁻¹; kon (soluble human RGMa): 870000 M⁻¹ s⁻¹; Kd (soluble rat RGMa [1]): < 0.0015 nM; koff (soluble rat RGMa [1]): < 1e-06 s⁻¹; kon (soluble rat RGMa [1]): 660000 M⁻¹ s⁻¹; Kd (soluble human RGMc [2]): 0.105 nM; koff (soluble human RGMc [2]): 0.00039 s⁻¹; kon (soluble human RGMc [2]): 3.95e+06 M⁻¹ s⁻¹; IC50 (nM), BMP reporter assay for RGMc (BRE-Luc, HEK293) [3]: 0.377 nM; IC50 (nM), BMP reporter assay for RGMa [4]: ~56.5 nM; Potency on membrane hRGMc (RGMc/BMP reporter assay), IC50 [5]: 0.37 nM; Kd (FcRn): 2950 nM and 2960 nM; Kd (soluble rat RGMa [6]): 0.12 nM; koff (soluble rat RGMa [6]): 3.6e-05 s⁻¹; kon (soluble rat RGMa [6]): 310000 M⁻¹ s⁻¹; Kd (Cyno RGMa): 0.64 nM; koff (Cyno RGMa): 0.00035 s⁻¹; kon (Cyno RGMa): 550000 M⁻¹ s⁻¹; Kd (Rat RGMc): 0.23 nM; koff (Rat RGMc): 0.00032 s⁻¹; kon (Rat RGMc): 1.4e+06 M⁻¹ s⁻¹; Kd (soluble human RGMc [7]): 0.105 nM; koff (soluble human RGMc [7]): 0.00039 s⁻¹; kon (soluble human RGMc [7]): 3.95e+06 M⁻¹ s⁻¹
